In article doi:10.1101/2025.09.09.675193 (bioRxiv, 2025):
Square brackets hold non-standard residues; d marks the D form. Ends that are not written are not given here. * marks the point of attachment. 5FAM = O=C1OC2(c3ccc(O)cc3Oc3cc(O)ccc32)c2ccc(C(=O)*)cc21; pT = C[C@@H](OP(=O)(O)O)[C@H](N)C(=O)O; pS = N[C@@H](COP(=O)(O)O)C(=O)O

Legend:
[1] = target: recombinant TOPBP1 BRCT domains 4+5 (residues 548-741) (human, UniProt Q92547 548-741); assay: fluorescence polarisation
[2] = target: recombinant TOPBP1 BRCT domains 7+8 (residues 1263-1495) (human, UniProt Q92547 1263-1495); assay: fluorescence polarisation
recombinant TOPBP1 BRCT domains 7+8 (residues 1263-1495), sequence (Q92547 1263-1495): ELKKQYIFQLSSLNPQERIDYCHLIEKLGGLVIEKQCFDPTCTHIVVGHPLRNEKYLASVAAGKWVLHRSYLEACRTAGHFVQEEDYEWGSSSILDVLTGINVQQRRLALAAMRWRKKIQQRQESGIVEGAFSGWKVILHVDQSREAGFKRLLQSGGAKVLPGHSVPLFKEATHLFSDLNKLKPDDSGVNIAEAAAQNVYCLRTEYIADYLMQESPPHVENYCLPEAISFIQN

[3] = target: T1, DDIAS OB fold WT (Homo sapiens, UniProt Q8IXT1 1-168); assay: EMSA
T1 sequence: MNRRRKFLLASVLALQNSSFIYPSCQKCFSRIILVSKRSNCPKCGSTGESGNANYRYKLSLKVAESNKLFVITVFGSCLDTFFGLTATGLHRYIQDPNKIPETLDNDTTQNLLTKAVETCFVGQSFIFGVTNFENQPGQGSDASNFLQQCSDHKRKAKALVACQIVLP

[4] = target: T2, DDIAS OB fold C25A/C28A (Homo sapiens, UniProt Q8IXT1 1-168, C25A;C28A); assay: EMSA
T2 sequence: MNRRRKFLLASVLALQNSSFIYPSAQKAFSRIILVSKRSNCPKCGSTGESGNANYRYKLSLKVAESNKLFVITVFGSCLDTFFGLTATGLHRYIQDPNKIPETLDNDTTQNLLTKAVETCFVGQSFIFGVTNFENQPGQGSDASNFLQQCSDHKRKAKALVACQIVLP

recombinant TOPBP1 BRCT domains 4+5 (residues 548-741), sequence (Q92547 548-741): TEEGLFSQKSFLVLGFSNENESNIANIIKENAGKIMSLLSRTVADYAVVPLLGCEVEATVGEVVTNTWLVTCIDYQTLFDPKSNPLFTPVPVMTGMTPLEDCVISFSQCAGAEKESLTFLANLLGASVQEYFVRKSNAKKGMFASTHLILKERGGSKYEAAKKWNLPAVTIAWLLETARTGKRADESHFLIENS

Binder: 5FAM-GSGETDSDEWVPP[pT]TQK (also: phosphothreonine at Thr868 (position not mappable)) [DDIAS-pT868 peptide, 5-carboxy-fluorescein labelled]
- binding result [1]: binds

Binder: 5FAM-GSGEGSYDA[pS]ADLFDD (also: phosphoserine at Ser676 (S6 or S10)) [DDIAS-pS676 peptide, 5-carboxy-fluorescein labelled]
- binding result [2]: binds

Binder: 5FAM-GSGETRSAW[pS]PELFS (also: phosphoserine at Ser993 (position not mappable)) [DDIAS-pS993 peptide, 5-carboxy-fluorescein labelled]
- binding result [2]: binds

Binder: GATGAGATTGAGGCTGGCCTGCAGGCATGCAAGCACCTGG (ssDNA) [Cy5 40-nt ssDNA]
- binding result [3]: binds
- binding result [4]: no binding

B1: Cy5 40-bp dsDNA (dsDNA)
DNA 1: GATGAGATTGAGGCTGGCCTGCAGGCATGCAAGCACCTGG
DNA 2: CCAGGTGCTTGCATGCCTGCAGGCCAGCCTCAATCTCATC
- binding result [3]: no binding
